From patent US5919635A (ZymoGenetics, Inc., priority 1995, dated 1999)

Experiments:
[1] = target: rat glucagon receptor (pLJ4 transfectants) (Rattus norvegicus, UniProt P30082); assay: Intracellular calcium response (fura-2 imaging) of pLJ4 BHK transfectants; format: cell-based; conditions: 100 nM final glucagon; resting value approximately 150 nM; from calibration experiments
Protocol: E. Intracellular Calcium Concentration Determination
Plasmid pLJ4 BHK transfectants seeded into 2 well coverglass chambers (NUNC) at 5×10^4 cells per chamber. The cells were grown for between one and three days under normal culture conditions in methotrexate selection medium. The medium was removed by aspiration, and the chambers were rinsed twice with 1 ml Imaging Buffer (Table 3). The cells were incubated for 30 minutes in the dark at room temperature with 0.5 ml of Fura-2 AM Solution (Table 3). After incubation, the Fura-2 AM Solution was removed, and the cells were rinsed with 1 ml Imaging Buffer three times. After the final rinse, 0.5 ml of buffer was left in each chamber. […]
Imaging was performed on a Nikon Diaphot inverted fluorescence microscope equipped with a mercury arc lamp and 10× and 40× Nikon Fluor dry objective lenses. Experiments were controlled and analysed using a Sun SPARC II workstation and Inovision (Research Triangle Park, N.C.) RATIOTOOL software. […] Emission images were directed by a dichroic mirror (380 nm cutoff) to a Dage-MTI 72 CCD camera equipped with a Genesis II image intensifier and digitally recorded by the software.
Intracellular calcium concentration was monitored by calculating a ratio of emission intensities at each of the two excitation wavelenths (340/380) for each pixel of the digital microscopic image field (512×480 pixels). […]

[2] = target: T1, cloned receptor (rat glucagon receptor, pLJ4) (Rattus norvegicus, UniProt P30082); assay: Competition binding / Scatchard analysis with ^125 I-glucagon on membranes of pLJ4 BHK transfectants
T1 construct: pLJ4 contained an approximately 2 kb insert encoding a 485 amino acid protein; expressed in transfected cells; host or cells: BHK570
T1 sequence (P30082 27-485): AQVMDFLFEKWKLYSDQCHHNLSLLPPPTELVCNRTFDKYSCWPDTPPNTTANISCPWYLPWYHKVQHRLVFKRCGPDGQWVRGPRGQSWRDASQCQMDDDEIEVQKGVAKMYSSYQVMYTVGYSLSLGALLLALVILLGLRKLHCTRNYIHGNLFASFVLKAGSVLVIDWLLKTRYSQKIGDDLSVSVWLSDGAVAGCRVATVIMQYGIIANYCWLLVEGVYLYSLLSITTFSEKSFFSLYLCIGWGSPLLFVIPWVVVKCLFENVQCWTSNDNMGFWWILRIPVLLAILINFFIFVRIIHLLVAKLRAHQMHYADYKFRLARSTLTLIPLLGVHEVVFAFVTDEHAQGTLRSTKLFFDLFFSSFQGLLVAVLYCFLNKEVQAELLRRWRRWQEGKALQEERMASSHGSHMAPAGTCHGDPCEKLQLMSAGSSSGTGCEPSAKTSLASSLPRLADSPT
Protocol: Membranes from the pLJ4 BHK transfectants were compared with rat liver membrane preparations for the ability to bind ^125 I-glucagon. Membranes were prepared essentially described by Rodbell et al. (J. Biol Chem. 246:1861-1871, 1971, which is incorporated by reference herein in its entirety). Two batches of liver membranes were each prepared from approximately 80 gm of liver from 12 to 16 decapitated young female rats. The livers were removed quickly and placed into an iced beaker. The livers were separated into ten-gram portions. The portions were minced with scissors, and connective tissue was removed during the mincing procedure. The portions were separately homogenized in a Dounce homogenizer. To each portion, 25 ml of Medium (Table 2) was added to the minced tissue in the homogenizer, and the tissue was homogenized in an ice bucket with eight vigorous strokes of the loose pestle. After homogenization, the homogenates were pooled into 450 ml of cold Medium (Table 2). The pooled homogenates were stirred for 3 minutes and filtered through two layers of cheesecloth followed by filtering through four layers of cheesecloth. The homogenates were then centrifuged for 30 minutes at 1500×g at 4° C. The supernatants were discarded, and the pellets were pooled into a clean Dounce homogenizer. The pellets were resuspended with three gentle strokes of the loose pestle. The resuspended pellets were decanted into a 250 ml graduate containing 62 ml of 69% Sucrose Solution (Table 2). Distilled water was added to a final volume of 110 ml, and the mixture was thoroughly mixed and kept cold. The concentration of the solution was adjusted to 44.0%+/-0.1% using 69% sucrose or water as measured by a refractometer (Bausch & Lomb, Rochester, N.Y.). […]
To each tube 100 μl of 2× binding buffer; 20 μl of ^125 I-glucagon (Amersham); 20 μl of 1 mM NaHCO3; 20 μl 10 mM HOAc, 0.5% BSA (Novo Nordisk N/A, Bagsvaerd, Denmark); and 40 μl of distilled water were added. […] The supernatants from each sample were aspirated, and the pellets were counted. […]

rat glucagon receptor (pLJ4 transfectants), sequence (P30082 27-485): as above

glucagon: 29 amino acid hormone produced by the alpha cells of pancreatic islets; human glucagon (Sigma)
peak intracellular calcium concentration [1]: approximately 400 nM
Kd ([2]; Scatchard analysis, cloned receptor, BHK transfectant membranes, 30 minutes at 30° C., read-out: apparent Kd): 50 nM
ability to compete for ^125 I-glucagon binding ([2]; micromolar amounts (Table 7: 1 μM glucagon and des-His^1 [Glu^9]glucagon amide)): able to compete
